Experimental findings from the DeepSol protein solubility set are described below.

This series can be described thus: soluble on expression in E. coli; label from the status in PepcDB or PDB records.
Take “EVKLQESGAGLVQPSQSLSLTCSVTGYSITSGYYWNWIRLFPGNKLEWVGYISNVGDNNYNPSLKDRLSITRDTSKNQFFLKLNSVTTEDTATYYCARSEYYSVTGYAMDYWGQGTTVTVSSAWRHP”: the “soluble on expression in E. coli” value was “soluble”. The same measure for “KAKTEDFVKAFQVFDKESTGKVSVGDLRYMLTGLGEKLTDAEVDELLKGVEVDSNGEIDYKKFIEDVLRQ”: “soluble”; for “MAHHHHHHMSLNLAEAADERSQREMEKYLVERVAGQGTFGTVQLAREKNTGVNVAIKKVIQDPRFKNRELQIMQDLSRLRHPNIVLLKNYFYTVLGDHRHNDVYLNVVMEFVPDTLHRVCRAYYRRLASPPMILVKVFMYQLLRGIACLHLPAVNVCHRDIKPHNVLVDESTGDLKLCDFGSAKKLSPSEPNVAYICSRYYRAPELIFGNQYYSTAVDVWSVGCIFAEMLLGEPIFCGENTSGQLREIVRVLGRPSREELHKLSTSNVELNVPTNKSTPWEDVFKRPLPAEVYDLCAKIFKYLPEQRITPLEAICHPFFDELHDATVKLPSGNALPAHLFTFLPEEINEMTEAQRSQLVQK”: “soluble”; for “MDSPQYLFLDFEFTMPETKTNPDGFCPEIIEVGLVAVVDDQIIGQFSSYVKPLRFPQLTERCKSFLNITQEQIDRGMSFYELVSLLRQYDRDRPTTVMTWGSMDMKVLRENCQSARVEFPFTGEHRDLAMEYKRFFGNKNQTALRKAVQEYGNEAVGKAHCALDDAFTAYTIFRLVENDKKYLAKTKPPTIGERIDLSQLRKKFAL”: “not soluble”. The same measure for “MINVLIIDDDAMVAELNRRYVAQIPGFQCCGTASTLEKAKEIIFNSDTPIDLILLDIYMQKENGLDLLPVLHNARCKSDVIVISSAADAATIKDSLHYGVVDYLIKPFQASRFEEALTGWRQKKMALEKHQYYDQAELDQLIHGSSSNEQDPRRLPKGLTPQTLRTLCQWIDAHQDYEFSTDELANEVNISRVSCRKYLIWLVNCHILFTSIHYGVTGRPVYRYRIQAEHYSLLKQYCQ”: “soluble”; for “MQVLWSNPIELGMTGGDVRMVKGPSDALRCLADHWPYRGPYYVAARSACRAAIDGRRTCEEARRLFLSAAEEARLKAH”: “not soluble”; for “MGSDKIHHHHHHMVVASVVLWGKHVGAVLWNYDKGYATFEFEAGFLKSGLDVAPLTMPLANVSKGEIFQFAQLPKETFHGLPGLLSDALPDRFGNQLIDLWLASQGRDKASMSPVERLCYLGTRGMGALEFEPTVRNEKEPSKGLEIGALVELSKKALSMKASLDSHFSKEDAETFADIIKVGTSAGGARAKAVIAYNEQTGEVRSGQLHSPAGFEHWLIKFDGVTNEQLGDPKGYGRIEYAYYKMAIDADIIMMPSLLLEEGGRAHFMTKRFDRIVNNEKLHMQTLCGLCHFDYNNPEAYAYEQAFQAMRQLRLPYTDAEQLYIRMVFNVVARNQDDHTKNISFLMDKTGNWSLSPAYDVSYAYNPENKWIAKHQLAVNGKRENIMREDLLSVAKQMNIKKPKEIIEKITAVVSNWEGYAQEAGVPKNQITALGKTHLLKM”: “not soluble”. The same measure for “MIDVLLGADDGSLAFVPSEFSCSPGCKIVFKNNAGFPHNIVFDEDSIPSGVDASKISMSEEDLLNAKGETFEVALSNKGEYSFYCSPHQGAGMVGKVTVN”: “soluble”; for “KRRAALNLRIFATEGAMMLGVTLSRLEGRSFIERSPGRRPFFKPGPLSPRLSRAFVNLSRLQRGGSFADPFCGTGGFAIEACLLGASRIACGDLDWAMVRGGPLNLSRYCPPGIWFYSAWNAAKLPLSSNSVDSIATDPPYGRSTTTGRMGYLSLTRAFLNTAVEVLRSEGWIVYAGPTRMSPETLAEDAGLRVVKVIEMFVHGSLTRSIVVARFG”: “not soluble”. As for “MKPDIYALLERALLSGDPDEKGRLTDEAFAAVQNMDGAETNTPPLDFPRAGRPDKPVLVAPSQLTPRKMNTTEGYAAMLHAIAHIEFNAVNLALDAAYRFRTLPFQFVRDWVKVAKEEVYHFRLMRERLRAFGFDYGDFEAHNHLWDMAYKTAYDPLLRMALVPRVLEARGLDVTPGIRAKVAQRGDSETCGVLDIIYRDEVGHVAIGNRWYQHLCRERGLEPIALFRSLIARYDMFIFRGYVNIEAREKAGFSRFELDMLEDFEQSLKQNKNTVMGHHHHHHSH”, the “soluble on expression in E. coli” value is “soluble”. With “MSSRKRGITPSRDQVRRKKLSIEETDSIEVVCRLCPYTGSTPSLIAIDEGSIQTVLPPAQFRRENAPQVEKVFRFGRVFSENDGQATVFERTSVDLILNLLKGQNSLLFTYGVTGSGKTYTMTGKPTETGTGLLPRTLDVIFNSINNRVEKCIFYPSALNTFEIRATLDAHLKRHQMAADRLSTSREITDRYCEAIKLSGYNDDMVCSVFVTYVEIYNNYCYDLLEDARNGVLTKREIRHDRQQQMYVDGAKDVEVSSSEEALEVFCLGEERRRVSSTLLNKDSSRSHSVFTIKLVMAPRAYETKSVYPTMDSSQIIVSQLCLVDLAGSERAKRTQNVGERLAEANSINQSLMTLRQCIEVLRRNQKSSSQNLEQVPYRQSKLTHLFKNYLEGNGKIRMVICVNPKPDDYDENMSALAFAEESQTIEVKKQVERMPSERIPHSFFTQWNSELDGSVRMEDDGSREIPCPPTFCLTDCNDKDTVDSMYKYARKLSSLQNSSEEGPSSTLLTMIRQYMMEADYQRVEIARLKDSLNDKDEEIKKLRGFCSRYKRENASMKERIASCEQGEQENALVMEKLMEQKMEDRKIIQSQKKAMRNVRGIIDNPSPSVASLRSRFDQENVAHPTAPIQTPPPPYQTPGRAPVFKKRLEATTSTTVMSGSSSGGSGQQGYVNPKYQRRSKSASRLLDHQPLHRVPTGTVLQSRTPANAIRTTKPEMHQLNKSGEYRLTHQEVDDEGNISTNIVKGNVIPTVSGGTAVFFNDIERLTHESPSTRK” the entry was “not soluble”. With “MDLASNLGGKIDKSDVLTAVEKYEQYHVFHGGNEEERKANYTDMVNKYYDLATSFYEYGWGESFHFAQRWKGESLRESIKRHEHFLALQLGIQPGQKVLDVGCGIGGPLREIARFSNSVVTGLNNNEYQITRGKELNRLAGVDKTCNFVKADFMKMPFPENSFDAVYAIEATCHAPDAYGCYKEIYRVLKPGQCFAAYEWCMTDAFDPDNAEHQKIKGEIEIGDGLPDIRLTTKCLEALKQAGFEVIWEKDLAKDSPVPWYLPLDKNHFSLSSFRLTAVGRFITKNMVKILEYIRLAPQGSQRVSNFLEQAAEGLVDGGRREIFTPMYFFLARKPE” the entry was “soluble”; with “MYDVLDSQSVLEVLRPVQDPELRKSLVELNMIRNVKIDGGQVSFTLVLTTPACPLREFIVEDCQRAVKKLPGVTDVSVEVTAETPQQKSLPDRNGVPGVKNIIAISSGKGGVGKSTVAVNVAVALAQTGAKVGLLDADIYGPNDPTMLGLGDAQIVVRSTEKGEVLEPAFNHGVKLVSMGFLIDRDQPVIWRGPMLNGVIRQFLYQVEWGELDYLIVDMPPGTGDAQLTLTQAVPMSGAVIVTTPQNVALLDSRKGLRMFQQMNVAVLGIVENMSYFIPPDMPDKHYDIFGSGGGSKTAAELGVPLLGCIPLEISTRIGGDNGVPIVVADPDSASAKALKAIALTIAGKVSVAALTLEHHHHHH”, “soluble”; with “MLKEFKMIEAVAPDMLDVLQERFQILRNIYWMQPIGRRSLSETMGITERVLRTETDVLKQLNLIEPSKSGMTLTERGLEVYQGLELVMNQLLGMHQIEKEMTQYFGIQRCIVVAGDSDIQKKVLSDFGDVLTNTLNLLLPNGENTIAVMGGTTMAMVAENMGSLETEKRHNLFVPARGGIGEAVSVQANSISAVMANKTGGNYRALYVPEQLSRETYNSLLQEPSIQEVLTLISHANCVVHSIGRALHMAARRKMSDDEMVMLKQKNAVAESFGYFFDEEGKVVYKIPRIGLQLKNLQEIPYVVAIAGGKTKAKAIRAYMKNAPKQTWLITDEAAANEILKGVTL”, “soluble”. With “MKCVFVTVGTTSFDDLIACVSAPDSLQKIESLGYNRLILQIGRGTVVPEPFSTESFTLDVYRYKDSLKEDIQKADLVISHAGAGSCLETLEKGKPLVVVINEKLMNNHQLELAKQLHKEGHLFYCTCSTLPGLLQSMDLSTLKCYPPGQPEKFSAFLDKVVGLQK” the entry was “soluble”.

As for “MSSNVPADMINLRLILVSGKTKEFLFSPNDSASDIAKHVYDNWPMDWEEEQVSSPNILRLIYQGRFLHGNVTLGALKLPFGKTTVMHLVARETLPEPNSQGQRNREKTGESNCCVIL”, the “soluble on expression in E. coli” value is “soluble”. The same measure for “MHFGKHNVDFMLPSLRKEWEDPEKIVSQIPIQPNFDIVDLGCGPGFFTLPLSETTDGKVYAIDASQEMIDALKQRIDGRSNIVTIKAPAEKIPLPDLSADLVFIANAYHDFDDRDEVLSEIYRILRAGRFLVDIDWKKEETTRGPPIDIRIDKKEAMLEIASHNFDIESEIEAGPHHYGLIFKKILEHHHHHH”: “soluble”. With “MVYTVDFKEVATIGLESSPVAPALAGLRANEARYFWNKYKHRFTTVPASEAPETLAWIEKILLERELHFPYKPLEISSFTLDGIKMAYVFYENGLAVNVMYTLAEEGKRAVGFKLSDGMAIPAEFEGKFKFARQKSKLAGTIRGSYFVIKGTY” the entry was “soluble”; with “MGSDKIHHHHHHMLFLKELESNLTVSKLMELCFEHPSYKDYCSVISTKKGEVLESLSPAGTKVYFVLSGIYGMIVEEDAEMEEESYKESIVRFLQKGDSFGLYHLFYDEWSPHVSMQSLGHGEVMEVDSNFLFSIFDKKDENNFFMIKVMAEELREAHTFAKLSFLKKEERIRKAILKCAQTLGTFSDNGILLPREITQEVLARYTNTSREYVAHTVMHLIKEDIIRNRPKPLLVMDKTRL”, “not soluble”; with “EIQLQQSGPELVKPGASVKVSCKASGYSFTDYFIYWVKQSHGKSLEWIGDIDPYNGDTSYNQKFRDKATLTVDQSSTTAFMHLNSLTSEDSAVYFCARGLRFWGQGTLVTVSAAKTTPPSVYPLAPGSAAQTNSMVTLGCLVKGYFPEPVTVTWNSGSLSSGVHTFPAVLQSDLYTLSSSVTVPSSTWPSETVTCNVAHPASSTKVDKKIVPRDCG”, “soluble”.

For the sequence “MAPAPEVVSWAEAVEQDNAPHIQEGADGTRTETAFTEVDGVRWKVVTQFKVINKRVPKVVADRKKWVKFGSCKGEPAGPQVATTYVAEEVDMQFTRNRAGEQILDVQEDKQTAKTTSREHCRHCKGNDHWSTHCPYKVMYQLDEEADADKDTEKDRMAMGMRPDGRQIDRNRSDENTCRVTNLPQEMNEDELRDLFGKIGRVIRIFIARDKVTGLPKGFAFVTFESRDDAARAIAELNDIRMYHMVLKVEWTRPSN”, the “soluble on expression in E. coli” value was “not soluble”.

Regarding “AMANIAQRPKRGPHDAAIQNILTELQNHAAAWPFLQPVNKEEVPDYYDFIKEPMDLSTMEIKLESNKYQKMEDFIYDARLVFNNCRMYNGENTSYYKYANRLEKFFNNKVKEIPEYSHLID”, the “soluble on expression in E. coli” value is on record as “soluble”.

Turning to “MGSDKIHHHHHHMLLALSTWSEIEERLKSSTSVVVPIGSNEQHGPTGLLGTDWLCPEIIAHEASKRASDKVLVAPTFNIGMAQHHLAFPGTIFLRPSTFIAAIGDWVRSLGAHGFTRIYFLNGHGGNVASIEAAFSEIYADYSFRQQRAPFALKLKNWWDLAGVNALANRQFPTGHGSHATPSEIAVTQWAYPETIKTAAYSPPIAPTGPIREALDFRARYADGRMGSDPAQATPEKGGELVSMAANALIEDLAAFAAERAPA”, the “soluble on expression in E. coli” value is listed as “not soluble”. With “GFPSPAADYVEQRIDLNQLLIQHPSATYFVKASGDSMIDGGISDGDLLIVDSAITASHGDIVIAAVDGEFTVKKLQLRPTVQLIPMNSAYSPITISSEDTLDVFGVVIHVVKAATR” the entry was “soluble”.
